From patent US20130330346A1 (Novartis, published 2013)
Where two headings read alike, the source gives them in different places. Values belong to the binder of their own block, whether it stands above or below them. Ends that are not written are not given here.

Assays:
[1] = target: T1, Human 1to19 peptide (human); experiment: ELISA, periplasmic extract on biotinylated peptide
T1 construct: First 19 N-terminal amino acids of human CXCR2, captured on neutravidin; also called human CXCR2 1 to19 peptide; 1-19 Nter peptide
T1 peptide: MEDFNMESDSFEDFWKGED-biotin
Description: In another setup, periplasmic extracts were analyzed for binding to human 1 to 19 peptide by ELISA. MaxiSorb plates (Nunc, 430341) were coated for two hours with neutravidin followed by one hour blocking (PBS, 1% casein). Then 100 nM biotinylated human 1 to 19 peptide was added to these plates for one hour (PBS, 0.1% casein, 0.05% tween20) followed by one hour incubation with 10-fold dilutions of periplasmic extracts. Unbound periplasmic extracts were washed away (PBS supplemented with 0.05% tween20) and bound Nanobodies were detected using mouse anti-myc (Roche, 11667149001) followed by rabbit anti-mouse-HRP conjugate (Dakocytomation, P0260). Table 8 summarizes the ratios of the binding signals of anti-CXCR2Nanobodies over an irrelevant control Nanobody.

[2] = target: T2, Human CXCR2 (human, UniProt P25025 1-360); experiment: FACS, periplasmic extract vs FMAT Blue Gro-α
T2 construct: Some cell lines carry an N-terminal 3xHA tag; also called hCXCR2; huCXCR2
T2 sequence: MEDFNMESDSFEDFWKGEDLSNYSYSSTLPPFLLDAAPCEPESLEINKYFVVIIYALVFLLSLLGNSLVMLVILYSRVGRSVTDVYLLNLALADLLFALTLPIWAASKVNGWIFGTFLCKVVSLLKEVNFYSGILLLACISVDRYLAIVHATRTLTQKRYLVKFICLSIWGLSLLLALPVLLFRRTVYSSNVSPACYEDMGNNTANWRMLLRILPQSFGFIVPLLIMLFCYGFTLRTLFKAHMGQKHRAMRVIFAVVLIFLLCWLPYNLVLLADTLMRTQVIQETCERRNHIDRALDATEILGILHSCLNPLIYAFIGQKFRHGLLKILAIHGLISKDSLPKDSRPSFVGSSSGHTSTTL
Description: Periplasmic extracts (as described above) were analyzed on FACS for competition with Gro-α in binding to human CXCR2. 2×10⁵ cells were incubated with a ½ dilution of periplasmic extracts in FACS buffer (PBS+10% fetal bovine serum (Sigma, F7524)) for 30 minutes at 4° C. Then, an equal volume of 6 nM of FMAT Blue-labeled human Gro-α in FACS buffer was added and incubation was continued for another 30 minutes at 4° C. in the dark. Cells were then washed three times in FACS buffer and finally resuspended in FACS buffer. Dead cells were stained with propidium iodide (Sigma, P4170). Samples were then analyzed on a FACSarray (BD Biosciences).

[3] = target: T2, Human CXCR2; experiment: cell-based or functional assay
[4] = target: T2, Human CXCR2; experiment: FACS competition vs 3 nM FMAT-Blue Gro-α
Description: (§1) Purified monovalent anti-CXCR2Nanobodies were titrated against 3 nM FMAT-Blue-labeled Gro-α in the FACS ligand competition assay on human and cynomolgus CXCR2 (Table 10). On human CXCR2, blocking potencies range between double digit nM and sub-nM whereas on cynomolgus CXCR2, they range between single and double digit nM.

[5] = target: T3, Cynomolgus CXCR2 (cynomolgus, UniProt Q28519 3-353 (rhesus entry)); experiment: cell-based or functional assay
T3 chain: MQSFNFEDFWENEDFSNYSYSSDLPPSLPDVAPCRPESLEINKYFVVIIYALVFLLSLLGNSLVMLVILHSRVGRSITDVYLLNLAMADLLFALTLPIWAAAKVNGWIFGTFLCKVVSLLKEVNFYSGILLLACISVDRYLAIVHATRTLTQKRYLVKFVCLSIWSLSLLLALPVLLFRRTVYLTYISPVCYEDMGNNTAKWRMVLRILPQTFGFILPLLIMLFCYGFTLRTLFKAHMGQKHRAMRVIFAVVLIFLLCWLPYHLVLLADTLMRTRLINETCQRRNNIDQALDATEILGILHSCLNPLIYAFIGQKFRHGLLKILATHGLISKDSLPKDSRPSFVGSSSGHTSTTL

[6] = target: T2, Human CXCR2; experiment: cell-based or functional assay; remark: listed apart in the source
[7] = target: T3, Cynomolgus CXCR2; experiment: FACS competition vs 3 nM FMAT-Blue Gro-α
Description: as §1, with “Multivalent” for “Purified monovalent”, “14).” for “10).”

[8] = target: T2, Human CXCR2; experiment: FACS competition vs 3 nM FMAT-Blue Gro-α; remark: listed apart in the source
Description: as §1, with “Multivalent” for “Purified monovalent”, “14).” for “10).”

[9] = target: T2, Human CXCR2; experiment: cell-based or functional assay; remark: listed apart in the source
[10] = target: T3, Cynomolgus CXCR2; experiment: cell-based or functional assay
[11] = target: T2, Human CXCR2; experiment: cell-based or functional assay; remark: listed apart in the source

ratio of binding signal relative to blank control [1]: 1 ratio | FACS Gro-α competition (% inhibition) [2]: 90.3% | FLIPR % inhibition max [3]: 100% | FLIPR IC50 (GRO-α induced calcium release) [3]: 6.71 nM | % inhibition of max [4]: 93.5% | IC50 [4]: 1.11 nM
B1: 137B7 (VHH)
VHH: EVQLVESGGGLVQPGGSVRLSCVASGIIFRLSALGWTRQGPGKAREWVAGINSDGTTNYADPVKGRFTISRDNAKNTIYLHMDMLKPEDTAVYYCASGKYRGQGTQVTVSS
notes: Tested as periplasmic extract (pAX50) and as purified His6-tagged protein (pAX100); also called 137B07; not shown: C-terminal c-myc tag and His6 tag coded by the vector

Cynomologus WBSC IC50 (rhGROα) [5]: 0.56 nM | Human WBSC IC50 (rhGROα) [6]: 0.215 nM | % inhibition of max [7]: 98.5% | IC50 [7]: 1.74 nM | % inhibition of max [8]: 99.5% | IC50 [8]: 0.786 nM | [35S]GTPγS % inhibition of max (ENA-78) [9]: 100% | [35S]GTPγS % inhibition of max (GRO-α) [9]: 100% | [35S]GTPγS % inhibition of max (IL-8) [9]: 100% | [35S]GTPγS IC50 (ENA-78) [9]: 1.3 nM | [35S]GTPγS IC50 (GRO-α) [9]: 1.02 nM | [35S]GTPγS IC50 (IL-8) [9]: 1.09 nM | FLIPR % inhibition of max [10]: 100% | FLIPR IC50 (GRO-α induced calcium release) [10]: 6.36 nM | FLIPR % inhibition of max [11]: 100% | FLIPR IC50 (GRO-α induced calcium release) [11]: 11.8 nM
B2: CXCR20030 (other)
chain: EVQLVESGGGLVQAGGSLRLSCAASGRTFSDYAMGWFRQAPGKEREFVAAITWNGGRVFYTASVKGRFTISRDNAKNTMYLQMNSLKPEDTAVYYCAADKDRRTDYLGHPVAYWGQGTQVTVSSGGGGSGGGGSGGGGSGGGGSGGGGSGGGGSGGGGSEVQLVESGGGLVQAGGSLTLSCAVSGSTFRINTMGWYRRAPGKQRELVAARDRGGYINYVDSVKGRFTVSRDNAKPTMYLQMNSLKPEDTAVYYCHAGTQDRTGRNFDRWGQGTQVTVSS
notes: Biparatopic: two VHH joined by a GlySer linker; also called 163D2-35GS-54B12; 163D2-54B12; not shown: C-terminal c-myc tag and His6 tag coded by pAX100

Cynomologus WBSC IC50 (rhGROα) [5]: 0.42 nM | Human Chemotaxis IC50 (rhGROα) [6]: 0.15 nM | Human WBSC IC50 (rhGROα) [6]: 0.345 nM | % inhibition of max [7]: 99% | IC50 [7]: 2.2 nM | % inhibition of max [8]: 100% | IC50 [8]: 0.65 nM | [35S]GTPγS % inhibition of max (GRO-α) [9]: 100% | [35S]GTPγS IC50 (GRO-α) [9]: 1.01 nM | FLIPR % inhibition of max [10]: 100% | FLIPR IC50 (GRO-α induced calcium release) [10]: 4.46 nM | FLIPR % inhibition of max [11]: 100% | FLIPR IC50 (GRO-α induced calcium release) [11]: 17.9 nM
B3: CXCR20033 (bispecific antibody)
chain: EVQLVESGGGLVQPGGSLRLSCVASGRIFSSNAMGWFRQAPGKEREFVAAITWRSGGSAYYADSAKGRFTISRDNAKNTVYLQMNSLKPEDTAVYYCAAGGSSWLSFPPDYWGQGTQVTVSSGGGGSGGGGSGGGGSGGGGSGGGGSGGGGSGGGGSEVQLVESGGELVQPGGSLRLSCAASGSILTINAMGWYRQAPGKQRELVVRRTRGGSTTYQDSVKGRFTISADIAKKTMYLQMNSLKPEDTAVYYCMLDDRGGVYWGQGTQVTVSS
notes: Biparatopic: two VHH joined by a GlySer linker; also called 163E3-35GS-2B2; 163E3-2B2; not shown: C-terminal c-myc tag and His6 tag coded by pAX100

FACS Gro-α competition (% inhibition) [2]: 36.9%
B4: 126B11 (VHH)
VHH: EVQLVESGGGLVQAGGSLTLSCAVSGSSFRINTMGWYRRAPGKQRELVAARDRGGYINYVDSVKGRFTVSRDNAKPTMYLQMNSLKPEDTAVYYCHAGTQDRTGRNFDHWGQGTQVTVSS
notes: Tested as periplasmic extract only; not shown: C-terminal c-myc tag and His6 tag coded by the vector

ratio of binding signal relative to blank control [1]: 0.8 ratio | FACS Gro-α competition (% inhibition) [2]: 75.8%
B5: 159B10 (VHH)
VHH: EVQLVESGGGLVQPGGSLRLSCAASGRTFSSLSMGWFRQAPGKERAFVAALTRNGGYRYYADSVKGRFTISRDVAKKTLYLQMNSLKPEDTAVYYCAADSLSGSDYLGTNLDYWGQGTQVTVSS
notes: as for B4
